These results are taken from PMC3655262.

Like-named read-outs stand apart in the source and are kept apart here.

Holding throughout (experiment): EMSA
On the technique in general: In EMSA bound probe runs differently from free probe, usually more slowly.

The target in one data set is T1, hZFP57zf3-4 (C232F) (Homo sapiens, UniProt Q9NU63-3 227-287, C232F).
T1 sequence: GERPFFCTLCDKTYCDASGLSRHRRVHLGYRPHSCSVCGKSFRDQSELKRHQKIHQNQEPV

Data set [1] concerns the target T2, hZFP57zf3-4E273A (Homo sapiens, UniProt Q9NU63-3 227-287, C232F;E273A).
T2 sequence: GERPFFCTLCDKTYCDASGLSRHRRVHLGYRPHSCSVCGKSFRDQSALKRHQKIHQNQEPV

The target in the next data set is T3, hZFP57zf1-4 (Homo sapiens, UniProt Q9NU63-3 172-287).
T3 sequence: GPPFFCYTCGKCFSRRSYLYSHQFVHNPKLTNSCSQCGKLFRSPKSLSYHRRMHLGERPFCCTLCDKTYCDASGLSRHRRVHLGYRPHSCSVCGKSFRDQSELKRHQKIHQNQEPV

The target of data set [2] is T2, hZFP57zf3-4E273A. The source holds these as a separate data set.

B1: TGCmetCGC probe (both strands methylated) (dsDNA)
DNA 1: GTAATATTGCCGCAGTAATA
DNA 2: TATTACTGCGGCAATATTAC
modifications: 5-methylcytosine at C11 of strand 1 and C9 of strand 2
For B1, the binding result with hZFP57zf3-4 (C232F), with hZFP57zf3-4E273A [1] and with hZFP57zf1-4 was “binds” in each case.

B2: TGCCGC unmethylated probe (dsDNA)
DNA 1: GTAATATTGCCGCAGTAATA
DNA 2: TATTACTGCGGCAATATTAC
Turning to B2, the binding result with hZFP57zf3-4E273A [2] is “binds”.
